The supplement of paper PMC10126150
± gives the standard deviation of the averaged measurements.

Test system: ATP
Experiment: switch fluorescence ratio, 500 uM ATP over buffer (Cy3 cluster intensity, sum of 5 cycles each) (fold (ratio)); higher = stronger signal-on switching upon ATP binding; sequences stand for … in TCGTCGGCAGCGTCAGATGTGTATAAGAGACAGTTTTTTTTTTTTTTTTTTTTTTTTT…TC
Details: aptamer strand: ATP DNA aptamer (quencher-CACCTGGGGGAGTATTGCGGAGGAAGG + anchor), 100 nM annealed; ATP concentration: 500 uM
How it was run: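 Per cluster, summed Cy3 intensity from the target cycles was divided by that from the buffer cycles to give the fluorescence ratio, then averaged per switch-domain sequence. Clusters outside 100-1000 RFU were excluded. The Cy3-labelled switching-strand clusters, on a modified Illumina MiSeq flow-cell, were annealed to 100 nM quencher-labelled ATP aptamer and imaged in selection buffer, then after 15 min with 500 uM ATP at 22 °C, for five cycles with NaOH stripping and re-annealing between them.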
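Further: ATP exposure 15 min at 22 °C before imaging.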

| Sequence | switch fluorescence ratio |
| --- | --- |
| ACGCGGCGTG | 0.982 ± 0.03 |
| ACGCGGCTAT | 1.06 ± 0.033 |
| ACGCGGGGGA | 1.03 ± 0.014 |
| ACGCGGGTAA | 1.023 ± 0.0095 |
| ACGCGGTCCA | 0.988 ± 0.019 |
| ACGCTTCTTG | 1 ± 0.028 |
| ACGCTTGAAT | 1.01 ± 0.023 |
| ACGGAAAAAG | 1.01 ± 0.026 |
| ACGGAATTGT | 1.07 ± 0.029 |
| ACGGACATCT | 1.28 ± 0.022 |
| ACGGACCATG | 1.11 ± 0.042 |
| ACGGACCCGG | 1.36 ± 0.42 |
| ACGGACGTTC | 1.15 ± 0.015 |
| ACGGCATTAT | 1.164 ± 0.0042 |
| ACGGCCTGTT | 1.02 ± 0.017 |
| ACGGCCTTAT | 0.991 ± 0.033 |
| ACGGCGAGAG | 1.06 ± 0.03 |
| ACGGCGAGGT | 1.03 ± 0.032 |
| ACGGCGAGTC | 1.01 ± 0.024 |
| ACGGCTGCGG | 0.987 ± 0.035 |
| ACGGCTGTGC | 1.02 ± 0.013 |
| ACGGGACGCA | 1.089 ± 0.0019 |
| ACGGGACGGA | 1.034 ± 0.0065 |

| Sequence | switch fluorescence ratio |
| --- | --- |
| ACGGGACGTA | 1.04 ± 0.014 |
| ACGGGCATTT | 0.994 ± 0.04 |
| ACGGGCGGCG | 0.979 ± 0.047 |
| ACGGGCTTCT | 1.005 ± 0.0047 |
| ACGGGGGACT | 1.02 ± 0.049 |
| ACGGGGGATT | 1.03 ± 0.034 |
| ACGGGGGGCA | 1.01 ± 0.048 |
| ACGGGGGGGC | 1.09 ± 0.06 |
| ACGGGGGGGG | 1.02 ± 0.048 |
| ACGGGGGGGT | 1.09 ± 0.081 |
| ACGGGGTTGT | 1 ± 0.024 |
| ACGGGTAAAT | 1.01 ± 0.036 |
| ACGGGTGCGT | 1.017 ± 0.0027 |
| ACGGTAACTC | 1.27 ± 0.03 |
| ACGGTACGGA | 1.21 ± 0.05 |
| ACGGTCCAGG | 3 ± 0.5 |
| ACGGTCCGGG | 1.06 ± 0.036 |
| ACGGTGAACC | 0.989 ± 0.06 |
| ACGGTGAATG | 1 ± 0.038 |
| ACGGTGACTA | 1.1 ± 0.023 |
| ACGGTGATGG | 1.018 ± 0.0071 |
| ACGGTGGTCG | 0.913 ± 0.033 |
| ACGGTGTGGC | 1.03 ± 0.072 |

| Sequence | switch fluorescence ratio |
| --- | --- |
| ACGGTTAGTC | 1.04 ± 0.016 |
| ACGGTTCTTT | 1.01 ± 0.03 |
| ACGGTTGAAT | 0.9882 ± 0.0084 |
| ACGGTTTCGT | 1.01 ± 0.014 |
| ACGGTTTCTG | 1.04 ± 0.029 |
| ACGGTTTCTT | 0.9771 ± 0.0039 |
| ACGGTTTGCG | 0.979 ± 0.011 |
| ACGGTTTTGC | 0.997 ± 0.013 |
| ACGTAACCTA | 1.28 ± 0.014 |
| ACGTAATTGG | 1.21 ± 0.01 |
| ACGTAGGGGG | 0.988 ± 0.032 |
| ACGTAGTGGC | 1.04 ± 0.02 |
| ACGTAGTGTC | 1.03 ± 0.018 |
| ACGTATCTTG | 1.08 ± 0.038 |
| ACGTATTAAT | 1.12 ± 0.031 |
| ACGTATTTTC | 1.171 ± 0.0024 |
| ACGTCCGTTT | 1.04 ± 0.019 |
| ACGTCGCGGG | 0.9877 ± 0.0019 |
| ACGTCTGGCT | 0.996 ± 0.028 |
| ACGTCTTCAC | 1.069 ± 0.002 |
| ACGTGACCCA | 1.35 ± 0.071 |
| ACGTGGGGAG | 1.08 ± 0.022 |
| ACGTGGGGTA | 1.04 ± 0.022 |

| Sequence | switch fluorescence ratio |
| --- | --- |
| ACGTGGGGTC | 1.02 ± 0.022 |
| ACGTGGGTCT | 1.01 ± 0.028 |
| ACGTGGTAGC | 1 ± 0.03 |
| ACGTGTATTT | 1.08 ± 0.09 |
| ACGTGTGTTT | 1.01 ± 0.017 |
| ACGTGTTTTG | 1.02 ± 0.018 |
| ACGTTAGGGG | 1.14 ± 0.14 |
| ACGTTATAAG | 1.1 ± 0.011 |
| ACGTTCCGAG | 2.54 ± 0.32 |
| ACGTTCCGCT | 1.099 ± 0.003 |
| ACGTTCTATA | 1.026 ± 0.0088 |
| ACGTTGATTC | 1.03 ± 0.047 |
| ACGTTGGGGG | 1.01 ± 0.028 |
| ACGTTGGTGG | 1 ± 0.012 |
| ACGTTGTTTT | 0.984 ± 0.011 |
| ACGTTTAGAA | 1.01 ± 0.029 |
| ACGTTTTAAG | 1.01 ± 0.032 |
| ACGTTTTGTC | 1 ± 0.061 |
| ACGTTTTTAG | 1 ± 0.013 |
| ACTAAAATAT | 1.021 ± 0.0093 |
| ACTAAAGACA | 1.0077 ± 0.00019 |
| ACTAAAGGCT | 1.01 ± 0.015 |
| ACTAAAGGG | 1.02 ± 0.028 |

| Sequence | switch fluorescence ratio |
| --- | --- |
| ACTAAAGGGC | 1.07 ± 0.034 |
| ACTAACGGGG | 1.35 ± 0.084 |
| ACTAAGCTTG | 1 ± 0.033 |
| ACTAAGGGGT | 1.05 ± 0.016 |
| ACTAATGGCT | 1.01 ± 0.02 |
| ACTACAAGTT | 1 ± 0.026 |
| ACTACATATG | 1.03 ± 0.016 |
| ACTACCGGCG | 1.09 ± 0.022 |
| ACTACGTCGA | 2.01 ± 0.21 |
| ACTAGATTGA | 1.01 ± 0.028 |
| ACTAGGGCAG | 1.035 ± 0.005 |
| ACTAGGGCGT | 1 ± 0.033 |
| ACTAGGTTAT | 1.16 ± 0.15 |
| ACTAGTAACG | 0.9938 ± 0.0098 |
| ACTAGTATGC | 0.992 ± 0.017 |
| ACTAGTATTA | 1 ± 0.036 |
| ACTAGTGGGG | 0.996 ± 0.017 |
| ACTATCTATT | 0.997 ± 0.034 |
| ACTATGAGCT | 1.04 ± 0.041 |
| ACTATGTCTT | 1.005 ± 0.0049 |
| ACTATGTGTA | 0.989 ± 0.014 |
| ACTATTGGTG | 1.12 ± 0.035 |
| ACTATTTTTC | 1.016 ± 0.0035 |

| Sequence | switch fluorescence ratio |
| --- | --- |
| ACTCAAACCA | 1.14 ± 0.035 |
| ACTCAATTTT | 1.05 ± 0.03 |
| ACTCAGGTGT | 3.23 ± 0.13 |
| ACTCATTCTC | 1.04 ± 0.033 |
| ACTCGAGGGA | 1.01 ± 0.011 |
| ACTCGCCCCA | 1.46 ± 0.084 |
| ACTCGCGGGA | 0.995 ± 0.028 |
| ACTCGGAGCG | 1.01 ± 0.038 |
| ACTCGGCCGG | 1.001 ± 0.009 |
| ACTCGGGA | 1.13 ± 0.16 |
| ACTCGGGGGC | 1.09 ± 0.23 |
| ACTCGGTCTG | 1.02 ± 0.027 |
| ACTCTAGTAC | 1.31 ± 0.034 |
| ACTCTATTTG | 1.04 ± 0.025 |
| ACTCTTTGAT | 1.02 ± 0.0093 |
| ACTGAACGGT | 1.14 ± 0.055 |
| ACTGAATGCT | 0.973 ± 0.049 |
| ACTGAATTTG | 1.02 ± 0.053 |
| ACTGAGGCCT | 1.05 ± 0.045 |
| ACTGATTTGT | 0.996 ± 0.048 |
| ACTGCCGGTC | 1.04 ± 0.041 |
| ACTGCGAATT | 1.07 ± 0.023 |
| ACTGCGTAAA | 0.991 ± 0.041 |

| Sequence | switch fluorescence ratio |
| --- | --- |
| ACTGCTTGGT | 0.996 ± 0.017 |
| ACTGGAGGAG | 1.01 ± 0.017 |
| ACTGGAGTTT | 1.01 ± 0.023 |
| ACTGGCTGAG | 1.01 ± 0.024 |
| ACTGGGGATT | 1.04 ± 0.036 |
| ACTGGGGCGG | 1.022 ± 0.0063 |
| ACTGGGGGGA | 1.02 ± 0.04 |
| ACTGGGGGGG | 0.995 ± 0.03 |
| ACTGGGGTCA | 1 ± 0.03 |
| ACTGGGGTTA | 0.9786 ± 0.0021 |
| ACTGGGTAAA | 1.002 ± 0.0086 |
| ACTGGGTTGG | 0.9922 ± 0.0074 |
| ACTGGTGACT | 1.01 ± 0.037 |
| ACTGTAATGT | 1.13 ± 0.011 |
| ACTGTATATT | 1.18 ± 0.023 |
| ACTGTATGTG | 1.05 ± 0.024 |
| ACTGTGGGGG | 1.01 ± 0.022 |
| ACTGTGTTTT | 0.972 ± 0.015 |
| ACTGTTCAGC | 0.9948 ± 0.0062 |
